Data on one protein can be found in publication PMC6093294.

Holding throughout (assay): purified protein
Substrate in series [1]: CCCCCCCCCCCCCCCC(=O)SCCNC(=O)CCNC(=O)[C@H](O)C(C)(C)COP(=O)(O)OP(=O)(O)OC[C@H]1O[C@@H](n2cnc3c(N)ncnc32)[C@H](O)[C@@H]1OP(=O)(O)O
Particulars: 60 mM tryptamine, 300 mM Tris pH 8.0, 150 μM DTNB, 22°C.

Substrate in series [2]: NC[C@H](O)c1ccc(O)cc1
In kind it is biochemical, Bombyx mori. As to conditions: 100 μM oleoyl-CoA, 300 mM Tris pH 8.0, 150 μM DTNB, 22°C.

Substrate in series [3]: CCCCC/C=C\C/C=C\C/C=C\C/C=C\CCCC(=O)SCCNC(=O)CCNC(=O)[C@H](O)C(C)(C)COP(=O)(O)OP(=O)(O)OC[C@H]1O[C@@H](n2cnc3c(N)ncnc32)[C@H](O)[C@@H]1OP(=O)(O)O
The series is classed as biochemical, Bombyx mori. As to conditions: 60 mM tryptamine, 300 mM Tris pH 8.0, 150 μM DTNB, 22°C.

Substrate in series [4]: CCCCCCCC/C=C\CCCCCCCC(=O)SCCNC(=O)CCNC(=O)[C@H](O)C(C)(C)COP(=O)(O)OP(=O)(O)OC[C@H]1O[C@@H](n2cnc3c(N)ncnc32)[C@H](O)[C@@H]1OP(=O)(O)O
The series is classed as biochemical, Bombyx mori. As to conditions: 60 mM tryptamine, 300 mM Tris pH 8.0, 150 μM DTNB, 22°C.

Substrate in series [5]: CCCCCCCCCCCCCC(=O)SCCNC(=O)CCNC(=O)[C@H](O)C(C)(C)COP(=O)(O)OP(=O)(O)OC[C@H]1O[C@@H](n2cnc3c(N)ncnc32)[C@H](O)[C@@H]1OP(=O)(O)O
The series is classed as biochemical, Bombyx mori. Particulars: 60 mM tryptamine, 300 mM Tris pH 8.0, 150 μM DTNB, 22°C.

Substrate in series [6]: NCCc1c[nH]c2ccccc12
In kind it is biochemical, Bombyx mori. Particulars: 100 μM oleoyl-CoA, 300 mM Tris pH 8.0, 150 μM DTNB, 22°C.

Substrate in series [7]: CCCCCCCCCCCC(=O)SCCNC(=O)CCNC(=O)[C@H](O)C(C)(C)COP(=O)(O)OP(=O)(O)OC[C@H]1O[C@@H](n2cnc3c(N)ncnc32)[C@H](O)[C@@H]1OP(=O)(O)O
In kind it is biochemical, Bombyx mori. Particulars: 60 mM tryptamine, 300 mM Tris pH 8.0, 150 μM DTNB, 22°C.

Substrate in series [8]: NCCc1ccc(O)cc1
The series is classed as biochemical, Bombyx mori. Particulars: 100 μM oleoyl-CoA, 300 mM Tris pH 8.0, 150 μM DTNB, 22°C.

B1: Bm-iAANAT (insect arylalkylamine N-acyltransferase from Bombyx mori) (Bombyx mori) (protein)
chain: MAVTSTRGIVNLKEKGHFERENARVEKYTLGDELPAQLSSLEIRPRKMSVPAYTIQRLTYNDRDLVLKFLRRFFFRDEPMNLAVNLLETPESRCTELDDYAAATLSDGVSVAAVDENGDYVGVIINGIVRREEVDYTDKSEDCPNPKFRRILKVLGHLDREARIWDKLPETCDSVLEIRIASTHSSWRGRGLMRVLCEEAERLAKAMGAGALRMDTTSAFSAAAAERLNYKMAFGVRYADLPYAPQPEAPHLEARVYIKEL
As to B1, the Km in the series “purified protein [1]” is 1.1 ± 0.30 µM; in “purified protein [2]” it was 65 ± 16 mM; in the series “purified protein [3]”, 1.2 ± 0.67 µM; in “purified protein [4]” it was 1.7 ± 0.51 µM; in the series “purified protein [5]”, 0.92 ± 0.20 µM; in the series “purified protein [6]” it was 7.0 ± 0.5 mM. The Km in “purified protein [7]” was found to be 0.97 ± 0.12 µM; in “purified protein [8]” it was 84 ± 12 mM. In addition, the kcat in the series “purified protein [1]” was determined as 0.51 s⁻¹; in the series “purified protein [2]” it was 0.31 ± 0.04 s⁻¹; in the series “purified protein [3]”, 0.27 ± 0.02 s⁻¹; in “purified protein [4]”, 0.42 ± 0.02 s⁻¹; in the series “purified protein [5]”, 0.66 ± 0.01 s⁻¹; in the series “purified protein [6]”, 0.72 ± 0.01 s⁻¹. Also, the kcat in “purified protein [8]” was 2.7 ± 0.19 s⁻¹. Also, the kcat/Km came to 490000 M⁻¹ s⁻¹ in the series “purified protein [1]”; 4.7 ± 1.2 M⁻¹ s⁻¹ in “purified protein [2]”; 240000 ± 130000 M⁻¹ s⁻¹ in the series “purified protein [3]”; 240000 ± 70000 M⁻¹ s⁻¹ in “purified protein [4]”; 720000 ± 150000 M⁻¹ s⁻¹ in the series “purified protein [5]”; 100 ± 7 M⁻¹ s⁻¹ in “purified protein [6]”. In addition, the kcat/Km in the series “purified protein [8]” stood at 32 ± 5.3 M⁻¹ s⁻¹.
